# From paper PMC7617670
# Biological target: PabA variant aY127A (Escherichia coli) (UniProt P00903)
# Assay: ITC; 250 μM PabB titrated into 25 μM PabA in the cell; 25 °C; 50 mM Tris/HCl pH 7.5, 50 mM KCl, 5 mM MgCl2; without Cho and Gln; one set of sites
substance,measurement,value
"PabB, synthase subunit of aminodeoxychorismate synthase (ADCS) from Escherichia coli, wild type (from UniProt P05041 1-453) (enzyme)",Kd,> 8 µM
